The text below walks through data of patent publication US20130157959.

Data set [1] has as its target in vitro translated 35S-labelled mutant p53 K24R, P04637.
The target of data set [2] is in vitro translated 35S-labelled p53 (wild-type), P04637.
For data set [3], the target named is mutant p53 6CKR, P04637.

B1: GST-Hades Ring protein (RP) (protein)
chain: RLKQMQEEFQEHEAQLLSRAKPEDRESLKSACVVCLSSFKSCVFLECGHVCSCTECYRALPEPKKCPICRQAITRVIPLYN
Turning to B1, the “in vitro ubiquitination of 35S-labelled p53 K24R, SDS-PAGE and autoradiography” value in data set [1] is “the in vitro translated p53 K24R was not ubiquitinated by Hades”. In data set [2], the “in vitro ubiquitination of 35S-labeled p53 with E1 and several E2 enzymes, autoradiography” value was “The 35S-labeled p53 was polyubiquitinated in an Ubc5a or Ubc5c-dependent manner”; the “in vitro ubiquitination of 35S-labelled p53, SDS-PAGE and autoradiography” value is reported as “WT p53 was ubiquitinated by Hades”; the “in vitro ubiquitination of p53 with E1, E2 (UbcH5c) and His-ubiquitin, anti-p53 immunoblot” value is on record as “The p53 ubiquitination was only induce by Hades”. The “in vitro ubiquitination of p53 lysine mutants, immunoblot” value in data set [3] is on record as “Hades was still able to ubiquitinate a form of p53 in which all six lysines was mutated (6CKR)”.
